This passage reports EC50 results from US20140295495A1 (Biogen, published 2014).

This assay addresses T1, human antigen that binds to mAb1 (human, UniProt Q96FE5 42-538, limits assumed).
T1 sequence (looked up): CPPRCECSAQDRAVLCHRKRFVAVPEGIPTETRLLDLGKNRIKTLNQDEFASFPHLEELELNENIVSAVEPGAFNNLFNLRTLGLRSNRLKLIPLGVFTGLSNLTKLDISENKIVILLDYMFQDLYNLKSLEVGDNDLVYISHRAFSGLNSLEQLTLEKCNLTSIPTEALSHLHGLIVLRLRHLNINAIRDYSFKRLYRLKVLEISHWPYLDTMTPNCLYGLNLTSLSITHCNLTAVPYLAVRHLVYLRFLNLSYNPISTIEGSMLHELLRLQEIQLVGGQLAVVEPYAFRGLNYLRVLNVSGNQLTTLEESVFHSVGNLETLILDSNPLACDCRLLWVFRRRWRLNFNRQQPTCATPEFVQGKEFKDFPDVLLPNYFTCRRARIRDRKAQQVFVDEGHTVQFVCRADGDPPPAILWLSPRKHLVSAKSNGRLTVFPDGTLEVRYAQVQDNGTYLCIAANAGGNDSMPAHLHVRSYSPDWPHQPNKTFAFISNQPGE
Briefly: direct binding ELISA, antigen coated on the plate, detection with AP-anti-human Fab. (In general: An ELISA detects its analyte on a solid surface through an enzyme-linked reagent.)

Protocol: Plates were washed 3 times with 350 μL of PBS using a plate washer and blocked with 1% BSA, 0.1% ovalbumin, and 0.1% non-fat dry milk in Hank's balanced salt buffer containing 25 mM HEPES (pH 7.0) for 1 hour at room temperature. Plates were then washed again, and incubated for 1 h with a 3-fold dilution series set up for each test compound (50 μL/well, 8 dilutions) starting at 10 μg/mL and all in 0.1% BSA, 0.1% ovalbumin, and 0.1% non-fat dry milk in Hank's balanced salt buffer containing 25 mM HEPES (pH 7.0), and again washed. […] Plates were read at 405 nm on a Molecular Devices plate reader. EC₅₀ values for binding were calculated from the titration curve using prism software.

B1: mAb1-C (mAb1, anti-LINGO-1 antibody Li81, aglycosyl human IgG1; preparation with 39% trisulfide at the LC5-HC5 linkage) (antibody, V domains shown)
VH: EVQLLESGGGLVQPGGSLRLSCAASGFTFSAYEMKWVRQAPGKGLEWVSVIGPSGGFTFYADSVKGRFTISRDNSKNTLYLQMNSLRAEDTAVYYCATEGDNDAFDIWGQGTTVTVSS
VL: DIQMTQSPATLSLSPGERATLSCRASQSVSSYLAWYQQKPGQAPRLLIYDASNRATGIPARFSGSGSGTDFTLTISSLEPEDFAVYYCQQRSNWPMYTFGQGTKLEIK
modifications: 39% trisulfide at the LC5-HC5 linkage (heavy-light interchain Cys linkage)
The EC50 is the concentration needed to bring the measured effect to its halfway point. Low readings indicate an effect from little substance, high ones a need for much substance. For the molecule B1, the concentration for a half-maximal effect (EC50) is 0.02 nM.

B2: mAb1-A (mAb1, anti-LINGO-1 antibody Li81, aglycosyl human IgG1; preparation with about 0.5% trisulfide at the LC5-HC5 linkage) (antibody, V domains shown)
VH: EVQLLESGGGLVQPGGSLRLSCAASGFTFSAYEMKWVRQAPGKGLEWVSVIGPSGGFTFYADSVKGRFTISRDNSKNTLYLQMNSLRAEDTAVYYCATEGDNDAFDIWGQGTTVTVSS
VL: DIQMTQSPATLSLSPGERATLSCRASQSVSSYLAWYQQKPGQAPRLLIYDASNRATGIPARFSGSGSGTDFTLTISSLEPEDFAVYYCQQRSNWPMYTFGQGTKLEIK
modifications: about 0.5% trisulfide at the LC5-HC5 linkage (heavy-light interchain Cys linkage)
notes: also called mAb-A
B2 had an EC50 of 0.02 nM.
